The chains are these.
B1: TRTKM1 (Ac-ARTKIDWNKILS-NH2) (peptide)
peptide: Ac-ARTKIDWNKILS-NH2
B2: human S100A2 (natural protein)
chain: not shown
B3: TRTKM9 (Ac-TRTKIDWNAILS-NH2) (peptide)
peptide: Ac-TRTKIDWNAILS-NH2
B4: TRTKM11 (Ac-TRTKIDWNKIAS-NH2) (peptide)
peptide: Ac-TRTKIDWNKIAS-NH2
B5: TRTKM5 (Ac-TRTKADWNKILS-NH2) (peptide)
peptide: Ac-TRTKADWNKILS-NH2
B6: TRTKM6 (Ac-TRTKIAWNKILS-NH2) (peptide)
peptide: Ac-TRTKIAWNKILS-NH2
B7: TRTKM10 (Ac-TRTKIDWNKALS-NH2) (peptide)
peptide: Ac-TRTKIDWNKALS-NH2
B8: human S100P (natural protein, UniProt P25815 1-95, looked up)
chain: MTELETAMGMIIDVFSRYSGSEGSTQTLTKGELKVLMEKELPGFLQSGKDKDAVDKLLKDLDANGDAQVDFSEFIVFVAAITSACHKYFEKAGLK
B9: human S100B (natural protein, UniProt P04271 1-92, looked up)
chain: MSELEKAMVALIDVFHQYSGREGDKHKLKKSELKELINNELSHFLEEIKEQEVVDKVMETLDNDGDGECDFQEFMAFVAMVTTACHEFFEHE

In test [1] the target is B8. Nature of the test: other fluorescence titration.
The target in test [2] is B2. Nature of the test: ITC. For orientation: ITC needs no label: the signal is the heat of the interaction.
For test [3], the target named is B8. Nature of the test: ITC.
The target of test [4] is B9. In words: other fluorescence titration.
The target of test [5] is B2. Nature of the test: other fluorescence titration.
The target of test [6] is B9. In words: ITC.
The target in test [7] is T1, TRTK12 wild-type peptide (Ac-…-NH2) (N-terminus acetylated; C-terminus amidated). In words: stopped-flow fluorescence.
For test [8], the target named is T1, TRTK12 wild-type peptide (Ac-…-NH2). Nature of the test: ITC.
Test [9] has the same target. In words: other fluorescence titration.
Test [10] has the same target. Nature of the test: other fluorescence titration. This is another data set of the same source.
Test [11] shares this target. Nature of the test: ITC. The source holds these as a separate data set.
Test [12] has the same target. Nature of the test: stopped-flow fluorescence. The source holds these as a separate data set.
The target is the same in test [13]. Nature of the test: stopped-flow fluorescence. This is another data set of the same source.
The target is the same in test [14]. Nature of the test: other fluorescence titration. This is another data set of the same source.
The target is the same in test [15]. Nature of the test: stopped-flow fluorescence. The source holds these as a separate data set.
For test [16] the target is unchanged. In words: ITC. The source holds these as a separate data set.

Where two headings read alike, the source gives them in different places.

Chain of human S100A2 (P29034 whole entry): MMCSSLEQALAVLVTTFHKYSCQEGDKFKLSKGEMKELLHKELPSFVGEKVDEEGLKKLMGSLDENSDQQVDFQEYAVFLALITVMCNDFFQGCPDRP

As usually defined, the Kd is a measure of binding affinity in units of concentration. Read a high Kd as lower affinity. For B1, the Kd with human S100P [1] amounted to 7 ± 3 µM; with human S100A2 [2], 15.2 ± 1 µM; with human S100P [3] it was 2 ± 0.5 µM; with human S100B [4], 200 ± 100 nM; with human S100A2 [5], 16 ± 1 µM; in the test with human S100B [6], 2900 ± 1000 nM.

What is called koff is the first-order rate constant of dissociation. A high value points to a short-lived complex. B2: the off-rate (koff) in [7] is at least 250 s⁻¹. For the same molecule, the values for the Kd in test [8] and in test [9] were 48 ± 3 µM and 43 ± 9 µM, respectively.

As to B3, the Kd in the test with human S100P [1] is 30 ± 10 µM; with human S100A2 [2], 45 ± 2 µM; with human S100P [3], 7.1 ± 0.5 µM; with human S100B [4], 2000 ± 1000 nM; with human S100A2 [5], 17 ± 4 µM; in the test with human S100B [6] it was 1700 ± 100 nM.

Consider B4, for which the Kd in the test with human S100A2 [2] was 504 ± 9.7 µM; with human S100P [3] it was 31.7 ± 0.5 µM; with human S100B [4] it was 10000 ± 3000 nM; in the test with human S100B [6], 3800 ± 1000 nM.

In the case of B5, the Kd in the test with human S100P [1] turned out to be 100 ± 23 µM; with human S100A2 [2], 131 ± 6.1 µM; in the test with human S100P [3] it was 56.2 ± 4 µM; with human S100B [4], 600 ± 600 nM; with human S100B [6] it was 1200 ± 400 nM.

For B6, the Kd with human S100A2 [2] amounted to 21.5 ± 4 µM; with human S100P [3], 7.4 ± 1 µM; with human S100B [4], 5000 ± 1000 nM; in the test with human S100A2 [5], 23 ± 3 µM; in the test with human S100B [6], 1300 ± 600 nM.

In the test with human S100P [3], B7 gave a Kd of 43.1 ± 3.9 µM.

By kon is commonly meant a measure of how fast the partners come together. Read a high kon as fast association. As to B8, the affinity in [10], expressed as Kd, was 11 ± 1 µM. For the same molecule, in test [11], the dissociation constant Kd amounted to 5.1 ± 0.3 µM. Also, in test [12], the koff came to 286 s⁻¹ and the kon amounted to 5.6e+07 M⁻¹ s⁻¹.

Turning to B9, the koff in test [13] stood at 53 s⁻¹; in test [15] it was 86 s⁻¹. Besides, in test [13], the kon came out at 3.1e+07 M⁻¹ s⁻¹. The Kd in [14] is 3000 ± 1000 nM; in test [16], 1700 ± 100 nM.

Values taken from article PMC3839042 (Biochemistry, 2013).
